Patent US20260234228A1 (GENOME, published 2026)
Numbering of substitutions follows the chain as printed.

T1: mouse CNTN4 overexpressed on 293F cells (mouse, UniProt Q69Z26 19-1000)
T1 construct: whole, on cells; Overexpressed on 293F cells; the construct is not described; also called Mouse CNTN4 cell; mouse antigen-overexpressing 293F cells
T1 sequence (looked up): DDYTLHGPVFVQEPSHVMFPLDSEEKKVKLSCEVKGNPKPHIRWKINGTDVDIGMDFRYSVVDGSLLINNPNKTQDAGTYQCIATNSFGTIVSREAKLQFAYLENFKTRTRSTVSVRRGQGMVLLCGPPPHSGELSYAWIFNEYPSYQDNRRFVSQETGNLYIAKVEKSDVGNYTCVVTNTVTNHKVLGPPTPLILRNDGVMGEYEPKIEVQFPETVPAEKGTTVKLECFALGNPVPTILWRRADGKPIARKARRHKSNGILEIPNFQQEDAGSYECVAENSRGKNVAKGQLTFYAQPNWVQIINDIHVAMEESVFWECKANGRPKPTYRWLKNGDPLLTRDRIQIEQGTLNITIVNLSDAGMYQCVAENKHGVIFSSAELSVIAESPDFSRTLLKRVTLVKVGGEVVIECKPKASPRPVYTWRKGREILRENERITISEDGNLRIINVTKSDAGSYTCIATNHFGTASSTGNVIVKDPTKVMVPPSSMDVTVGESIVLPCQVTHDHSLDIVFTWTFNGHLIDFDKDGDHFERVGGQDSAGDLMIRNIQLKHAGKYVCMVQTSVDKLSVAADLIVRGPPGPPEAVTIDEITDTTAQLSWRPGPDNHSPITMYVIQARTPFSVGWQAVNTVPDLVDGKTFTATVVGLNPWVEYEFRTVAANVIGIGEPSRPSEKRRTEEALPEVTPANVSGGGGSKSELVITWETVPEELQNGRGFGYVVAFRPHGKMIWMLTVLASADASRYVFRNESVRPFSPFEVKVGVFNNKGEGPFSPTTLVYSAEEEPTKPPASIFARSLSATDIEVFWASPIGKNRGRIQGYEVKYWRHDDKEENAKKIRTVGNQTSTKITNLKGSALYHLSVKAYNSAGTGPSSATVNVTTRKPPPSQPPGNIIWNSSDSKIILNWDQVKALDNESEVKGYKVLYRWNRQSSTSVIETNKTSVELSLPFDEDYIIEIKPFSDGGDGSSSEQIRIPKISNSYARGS

B1: A108 scFv (scFv, V domains shown)
VH: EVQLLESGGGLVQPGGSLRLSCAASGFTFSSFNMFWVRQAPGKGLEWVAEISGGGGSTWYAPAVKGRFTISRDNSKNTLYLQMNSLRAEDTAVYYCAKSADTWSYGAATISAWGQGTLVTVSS
VL: ELTQDPAVSVALGQTVRITCSGSSGSYGWYQQKPGQAPVLVIYDNTNRPSGIPDRFSGSSSGNTASLTITGAQAEDEADYYCGGYDGSTDVFGGGTKLTVL
B2: A111 scFv (scFv, V domains shown)
VH: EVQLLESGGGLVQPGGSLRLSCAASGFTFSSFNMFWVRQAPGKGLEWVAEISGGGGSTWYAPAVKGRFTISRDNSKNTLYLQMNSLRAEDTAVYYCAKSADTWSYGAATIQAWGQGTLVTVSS
VL: B1 VL
B3: A102 scFv (scFv, V domains shown)
VH: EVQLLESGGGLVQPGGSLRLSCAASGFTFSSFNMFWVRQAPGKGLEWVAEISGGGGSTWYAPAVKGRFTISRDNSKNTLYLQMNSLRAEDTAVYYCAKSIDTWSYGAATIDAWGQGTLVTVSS
VL: B1 VL
B4: A103 scFv (scFv, V domains shown)
VH: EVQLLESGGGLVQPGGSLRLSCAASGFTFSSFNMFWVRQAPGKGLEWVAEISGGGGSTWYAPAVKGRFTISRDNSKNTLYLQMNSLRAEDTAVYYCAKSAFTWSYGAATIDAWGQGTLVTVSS
VL: B1 VL
B5: A104 scFv (scFv, V domains shown)
VH: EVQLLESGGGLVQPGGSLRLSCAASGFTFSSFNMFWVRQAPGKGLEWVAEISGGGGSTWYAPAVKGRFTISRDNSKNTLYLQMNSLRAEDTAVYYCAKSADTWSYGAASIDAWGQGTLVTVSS
VL: B1 VL
B6: A112 scFv (scFv, V domains shown)
VH: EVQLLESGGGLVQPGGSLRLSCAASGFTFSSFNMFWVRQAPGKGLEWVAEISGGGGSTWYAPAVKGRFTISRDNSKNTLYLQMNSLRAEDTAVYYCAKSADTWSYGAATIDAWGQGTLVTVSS
VL: B1 VL with S23R
B7: A109 scFv (scFv, V domains shown)
VH: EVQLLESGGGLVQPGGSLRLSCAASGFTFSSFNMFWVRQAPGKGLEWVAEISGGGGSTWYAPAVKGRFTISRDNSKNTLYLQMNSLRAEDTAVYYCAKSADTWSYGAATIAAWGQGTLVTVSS
VL: B1 VL
B8: A110 scFv (scFv, V domains shown)
VH: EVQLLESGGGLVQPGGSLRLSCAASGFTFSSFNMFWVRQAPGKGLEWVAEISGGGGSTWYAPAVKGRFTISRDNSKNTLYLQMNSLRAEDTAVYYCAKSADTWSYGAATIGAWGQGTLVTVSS
VL: B1 VL
B9: A114 scFv (scFv, V domains shown)
VH: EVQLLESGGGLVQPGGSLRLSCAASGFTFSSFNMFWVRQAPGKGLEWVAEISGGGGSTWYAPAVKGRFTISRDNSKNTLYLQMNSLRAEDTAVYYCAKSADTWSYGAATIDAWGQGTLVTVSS
VL: B1 VL with D86W
B10: A113 scFv (scFv, V domains shown)
VH: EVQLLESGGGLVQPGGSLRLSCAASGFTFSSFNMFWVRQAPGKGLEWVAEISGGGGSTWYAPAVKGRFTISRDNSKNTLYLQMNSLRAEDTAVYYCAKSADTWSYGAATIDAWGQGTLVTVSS
VL: B1 VL with D86R

Biological target: T1, mouse CNTN4 overexpressed on 293F cells
Assay: FACS, scFv periplasm on mouse CNTN4-overexpressing 293F cells, PE anti-His detection

EC50 [nM] | Top MFI [MFI] | Binder
20.2 | 2840 | B1
10.4 | 4190 | B2
17.3 | 2110 | B3
12 | 2740 | B4
29.4 | 2050 | B5
32.5 | 1860 | B6
8.3 | 2830 | B7
20.1 | 2150 | B8
7.6 | 2260 | B9
45.8 | 1100 | B10
